Several values for one entry are separate records, joined by “and”; a condition that tells them apart may be missing. Identical values can stand only once.
Target: H2AK119Ub nucleosome (UniProt P04908)
Test: cryo-EM structure

Sequence of GST-SSX1 (human SSX1 residues 111-188 with an N-terminal GST tag) (Q16384 111-188): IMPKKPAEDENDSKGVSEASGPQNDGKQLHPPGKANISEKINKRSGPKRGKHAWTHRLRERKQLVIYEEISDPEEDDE

- stoichiometry N (SSX1 per nucleosome): 2 and 1
Substance: GST-SSX1 (human SSX1 residues 111-188 with an N-terminal GST tag) (from UniProt Q16384 111-188) (domain or fragment)

From doi:10.1101/2023.07.08.548231
